The text below walks through data of the supplement of paper PMC9112550, “Optimization of the antimicrobial peptide Bac7 by deep mutational scanning” (BMC Biology, 2022).
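Note: peptides expressed intracellularly from a pBAD plasmid library in pooled LB shake-flask culture, induced with 0.3% L-arabinose, DNA abundance read by NGS, three biological replicates, DESeq2 with apeglm shrinkage.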

In this series the test system is Escherichia coli TOP10. Kind of series: shrunken log2 fold change of peptide-encoding DNA abundance (4.5 h post-induction vs induction); higher = less antimicrobial activity (less host growth inhibition). Particulars: time post-induction: 4.5 h; library: site-saturation at positions 5, 18, 19, 20.
In the case of RRIRRRPPRLPRPRPRPSITPRP, the “shrunken log2 fold change” value was -0.225.

Turning to RRIRKRPPRLPRPRPRPWHGPRP, the “shrunken log2 fold change” value was -0.165.

With RRIRVRPPRLPRPRPRPLWRPRP, the “shrunken log2 fold change” value is 0.293.

As to RRIRVRPPRLPRPRPRPVFWPRP, the “shrunken log2 fold change” value worked out at 0.378.

Consider RRIRYRPPRLPRPRPRPKDPPRP, for which the “shrunken log2 fold change” value is -0.236.

Consider RRIRPRPPRLPRPRPRPVLFPRP, for which the “shrunken log2 fold change” value worked out at 0.118.

RRIRNRPPRLPRPRPRPKDLPRP: the “shrunken log2 fold change” value was -0.0125.

Consider RRIRKRPPRLPRPRPRPVDSPRP, for which the “shrunken log2 fold change” value worked out at 0.134.

Consider RRIRHRPPRLPRPRPRPMCWPRP, for which the “shrunken log2 fold change” value is -0.178.

Take RRIRARPPRLPRPRPRPDNTPRP: the “shrunken log2 fold change” value is -0.214.

As to RRIRLRPPRLPRPRPRPGWCPRP, the “shrunken log2 fold change” value came out at 0.191.

In the case of RRIRRRPPRLPRPRPRPIKGPRP, the “shrunken log2 fold change” value turned out to be 0.174.

Take RRIRGRPPRLPRPRPRPKMWPRP: the “shrunken log2 fold change” value was 0.868.

Take RRIRPRPPRLPRPRPRPRRIPRP: the “shrunken log2 fold change” value is 0.252.

Consider RRIRRRPPRLPRPRPRPGMTPRP, for which the “shrunken log2 fold change” value is 0.129.

For RRIRSRPPRLPRPRPRPIWYPRP, the “shrunken log2 fold change” value is -0.373.

Consider RRIRGRPPRLPRPRPRPDRQPRP, for which the “shrunken log2 fold change” value is -0.11.

As for RRIRSRPPRLPRPRPRPMKLPRP, the “shrunken log2 fold change” value was -0.0255.

Take RRIRSRPPRLPRPRPRPQRMPRP: the “shrunken log2 fold change” value was -0.133.

In the case of RRIRLRPPRLPRPRPRPSCSPRP, the “shrunken log2 fold change” value is -0.527.

As to RRIRQRPPRLPRPRPRPKGNPRP, the “shrunken log2 fold change” value is -0.365.

For RRIRKRPPRLPRPRPRPPHQPRP, the “shrunken log2 fold change” value was 0.61.

Regarding RRIRYRPPRLPRPRPRPGFQPRP, the “shrunken log2 fold change” value is -1.11.

On to RRIRVRPPRLPRPRPRPDWTPRP, for which the “shrunken log2 fold change” value is 0.00219.

As to RRIRMRPPRLPRPRPRPQWNPRP, the “shrunken log2 fold change” value was -0.149.

For RRIRHRPPRLPRPRPRPHKFPRP, the “shrunken log2 fold change” value is -0.636.

As to RRIRMRPPRLPRPRPRPTFWPRP, the “shrunken log2 fold change” value was found to be 0.916.

Consider RRIRMRPPRLPRPRPRPELVPRP, for which the “shrunken log2 fold change” value stood at 0.0445.

On to RRIRSRPPRLPRPRPRPSFRPRP, for which the “shrunken log2 fold change” value is -0.357.

On to RRIRYRPPRLPRPRPRPGFVPRP, for which the “shrunken log2 fold change” value is 0.0168.

RRIRTRPPRLPRPRPRPNAMPRP: the “shrunken log2 fold change” value worked out at 0.0879.

Take RRIRSRPPRLPRPRPRPHWNPRP: the “shrunken log2 fold change” value is -0.429.

In the case of RRIRFRPPRLPRPRPRPHETPRP, the “shrunken log2 fold change” value is -0.347.

On to RRIRIRPPRLPRPRPRPHWNPRP, for which the “shrunken log2 fold change” value was -0.758.

Regarding RRIRRRPPRLPRPRPRPNDRPRP, the “shrunken log2 fold change” value was 0.205.

Consider RRIRNRPPRLPRPRPRPGDTPRP, for which the “shrunken log2 fold change” value was -0.0217.

Regarding RRIRMRPPRLPRPRPRPGPIPRP, the “shrunken log2 fold change” value turned out to be 0.115.

As for RRIRDRPPRLPRPRPRPCFAPRP, the “shrunken log2 fold change” value stood at 0.512.

As to RRIRPRPPRLPRPRPRPKRQPRP, the “shrunken log2 fold change” value came out at 0.0603.

Take RRIRYRPPRLPRPRPRPWNEPRP: the “shrunken log2 fold change” value is -0.0429.

Take RRIRGRPPRLPRPRPRPYAFPRP: the “shrunken log2 fold change” value was found to be 0.413.

As to RRIRGRPPRLPRPRPRPFCSPRP, the “shrunken log2 fold change” value is 0.143.

As to RRIRCRPPRLPRPRPRPTPGPRP, the “shrunken log2 fold change” value amounted to 0.589.

Turning to RRIRIRPPRLPRPRPRPFVGPRP, the “shrunken log2 fold change” value is -0.134.

In the case of RRIRRRPPRLPRPRPRPDVRPRP, the “shrunken log2 fold change” value was determined as 0.0483.

Turning to RRIRDRPPRLPRPRPRPDIDPRP, the “shrunken log2 fold change” value is -0.012.

In the case of RRIRKRPPRLPRPRPRPHWHPRP, the “shrunken log2 fold change” value is -0.0666.

With RRIRPRPPRLPRPRPRPTRFPRP, the “shrunken log2 fold change” value worked out at 0.41.

In the case of RRIRKRPPRLPRPRPRPPWMPRP, the “shrunken log2 fold change” value stood at 0.48.

Consider RRIRPRPPRLPRPRPRPGALPRP, for which the “shrunken log2 fold change” value turned out to be 0.243.

As to RRIRKRPPRLPRPRPRPYDKPRP, the “shrunken log2 fold change” value was -0.124.

For RRIRNRPPRLPRPRPRPVCLPRP, the “shrunken log2 fold change” value was -0.453.

On to RRIRTRPPRLPRPRPRPLQVPRP, for which the “shrunken log2 fold change” value was -0.219.

In the case of RRIRPRPPRLPRPRPRPIRLPRP, the “shrunken log2 fold change” value amounted to 0.0338.

As for RRIRCRPPRLPRPRPRPCMPPRP, the “shrunken log2 fold change” value was -0.66.

With RRIRHRPPRLPRPRPRPRVWPRP, the “shrunken log2 fold change” value stood at 0.534.

As for RRIRWRPPRLPRPRPRPYQCPRP, the “shrunken log2 fold change” value is -0.325.

Regarding RRIRQRPPRLPRPRPRPCDEPRP, the “shrunken log2 fold change” value worked out at 0.0697.

As to RRIRRRPPRLPRPRPRPRRRPRP, the “shrunken log2 fold change” value was determined as 0.778.

As to RRIRPRPPRLPRPRPRPQMKPRP, the “shrunken log2 fold change” value was -0.151.

On to RRIRHRPPRLPRPRPRPCASPRP, for which the “shrunken log2 fold change” value is -0.028.

RRIRTRPPRLPRPRPRPILPPRP: the “shrunken log2 fold change” value was -0.066.

In the case of RRIRLRPPRLPRPRPRPCAGPRP, the “shrunken log2 fold change” value came to 0.0736.

As for RRIRGRPPRLPRPRPRPVWIPRP, the “shrunken log2 fold change” value is 0.276.

For RRIRKRPPRLPRPRPRPNNCPRP, the “shrunken log2 fold change” value is -0.256.

RRIRIRPPRLPRPRPRPYVAPRP: the “shrunken log2 fold change” value was -0.674.

With RRIRMRPPRLPRPRPRPTDMPRP, the “shrunken log2 fold change” value was 0.0845.

Regarding RRIRVRPPRLPRPRPRPPTAPRP, the “shrunken log2 fold change” value came out at 0.43.

On to RRIRTRPPRLPRPRPRPRSWPRP, for which the “shrunken log2 fold change” value turned out to be 0.532.

Regarding RRIRCRPPRLPRPRPRPDDFPRP, the “shrunken log2 fold change” value came to 0.0333.

For the sequence RRIRFRPPRLPRPRPRPNWGPRP, the “shrunken log2 fold change” value is 0.0529.

As to RRIRYRPPRLPRPRPRPCNCPRP, the “shrunken log2 fold change” value was -0.0018.

For RRIRKRPPRLPRPRPRPFCHPRP, the “shrunken log2 fold change” value came to 0.00474.

With RRIRGRPPRLPRPRPRPYIQPRP, the “shrunken log2 fold change” value is -0.411.

On to RRIRRRPPRLPRPRPRPDMHPRP, for which the “shrunken log2 fold change” value is -0.203.

Regarding RRIRIRPPRLPRPRPRPGPQPRP, the “shrunken log2 fold change” value was found to be 0.0436.

In the case of RRIRRRPPRLPRPRPRPNEPPRP, the “shrunken log2 fold change” value turned out to be 0.317.

As for RRIRYRPPRLPRPRPRPQLRPRP, the “shrunken log2 fold change” value is -0.193.

With RRIRGRPPRLPRPRPRPMHDPRP, the “shrunken log2 fold change” value turned out to be 0.361.

For RRIRIRPPRLPRPRPRPKSFPRP, the “shrunken log2 fold change” value amounted to 0.0398.

In the case of RRIRIRPPRLPRPRPRPDVWPRP, the “shrunken log2 fold change” value was -0.109.

Regarding RRIRLRPPRLPRPRPRPLKIPRP, the “shrunken log2 fold change” value was -0.221.

As to RRIRDRPPRLPRPRPRPAAAPRP, the “shrunken log2 fold change” value worked out at 1.35.

As to RRIRWRPPRLPRPRPRPSCVPRP, the “shrunken log2 fold change” value was 0.121.

For RRIRARPPRLPRPRPRPFMLPRP, the “shrunken log2 fold change” value is -0.0197.

RRIRHRPPRLPRPRPRPGYKPRP: the “shrunken log2 fold change” value is -0.00663.

As for RRIRWRPPRLPRPRPRPWRCPRP, the “shrunken log2 fold change” value stood at 0.144.

For RRIRIRPPRLPRPRPRPAMWPRP, the “shrunken log2 fold change” value came out at 0.13.

In the case of RRIRNRPPRLPRPRPRPYHYPRP, the “shrunken log2 fold change” value was -0.722.

As to RRIRWRPPRLPRPRPRPEMSPRP, the “shrunken log2 fold change” value was -0.0114.

Regarding RRIRLRPPRLPRPRPRPLEIPRP, the “shrunken log2 fold change” value is -0.0425.
